Reference: publication PMC8000976

Target: full-length dengue virus serotype 1 (DENV1) NS1 (dengue virus serotype 1 (DENV1))
Assay: crystal structure

Q: For “full-length dengue virus serotype 1 (DENV1) NS1 (natural protein)”, which stoichiometry N is on record?
A: 2
